Results reported in PMC3256758.
“And” between values parts separate entries of the source, which are not always exact repeats. Equal values may be shown once. Read-outs that look alike come from different tables or passages of the source.

Assays:
[1] = target: Pisum sativum (green pea) porphobilinogen synthase (PsPBGS) (Pisum sativum (green pea)); experiment: native gel or EMSA
[2] = target: human porphobilinogen synthase, wild type (WT HsPBGS) (human) (UniProt P13716)
[3] = target: human porphobilinogen synthase, wild type (WT HsPBGS) (human) (UniProt P13716); remark: listed apart in the source
[4] = target: human porphobilinogen synthase, wild type (WT HsPBGS) (human) (UniProt P13716); remark: listed apart in the source

Substance | stoichiometry N [1] | percent Phe12 (WT) chains in the hetero-octamers (Pool II) [2] [%] | stoichiometry N [3] | stoichiometry N [4]
Pisum sativum (green pea) porphobilinogen synthase (PsPBGS) (enzyme) | 8 and 6 | – | – | –
human porphobilinogen synthase, naturally occurring variant F12L (from UniProt P13716 1-330) (enzyme) | – | 70 | 6 and 8 | 6 and 8
